Data as given in patent US20240309103A1 (Regeneron, published 2024).

B1: mAb22033 (antibody, human IgG4, V domains shown)
VH: QVQLVQSGAEVKKPGASVTVSCKASGYTFTDYYMHWVRQAPGQGLEWMGWIKPNSGGTNSAQRFQGRITMTWDTSISTAYMELSRLRSDDTAVYYCSRGGPVMNYYYYYGMDVWGQGTTVTVSS
VL: NIQMTQSPSSLSASVGDRVTITCRASQSIDSYLNWYQQKPGKAPKLLIYVASSLQSGVPSRFSGSGSGKDFTLTISSLQPEDFATYYCQQSYSIPTFGQGTRLEIK
B2: mAb25491 (antibody, human IgG4, V domains shown)
VH: QVQLVQSGAEVMKPGASVKVSCKASGYTFTGYYIHWVRQAPGQGLEWMGWITPNSGATNYAQKFQGRVTLTRDTSISTAYMELTRLKSDDTAVYYCARGGQLEFFYYYYGMDVWGQGTTVTVSS
VL: DIQMTQSPSSLSASAGDRVTITCRASQSIDSYLNWYQQKPGKAPKLLISATSGFQSGVPSRFSGSGSGTDFTLTISSLQPEDFGTYYCQQSYTTPITFGQGTRLEIK
B3: mAb22035 (antibody, human IgG4, V domains shown)
VH: EVQLVESGGGLVQPGRSLRLSCAASGFTFDDYAMHWVRQAPGKGLEWVSGISWNSGTIGYADSVKGRFTMSRDNAKNSLYLQMNSLRPEDTALYYCAKDMGVSLALWGAFDIWGQGTMVTVSS
VL: DIQMTQSPSSLSASVGDKVTITCRASQNIRTYLNWYQQKPGKAPKVLISTASSLQSGVPSRFSGSGSGTDFTLTISSLQPEDFAVFYCQQSFGIPRTFGQGTKVEIK
B4: mAb25502 (antibody, human IgG4, V domains shown)
VH: QLQLQESGPGLVKPSETLSLTCTVSGGSISSSSYYWGWIRQPPGKGLEWIGSIYYSGSPYYIPSLKSRVTISVDTSKNQFSLKLSSVTAADTAMYYCARQGRGIARAGPFDYWGQGTLVTVSS
VL: DIQMTQSPSSLSASVGDRVTITCRASQGISNYLAWYQEKPGKVPKLLIYAASTLQSGVPSRFSGSGSGTDFTLTITSLQSEDVATYYCQKYNSAPPWTFGQGTKVEIK

Target: T1, human NPR1 on HEK293/hNPR1.myc.DDK cells (0 hANP) (human, UniProt P16066 33-1061)
T1 sequence: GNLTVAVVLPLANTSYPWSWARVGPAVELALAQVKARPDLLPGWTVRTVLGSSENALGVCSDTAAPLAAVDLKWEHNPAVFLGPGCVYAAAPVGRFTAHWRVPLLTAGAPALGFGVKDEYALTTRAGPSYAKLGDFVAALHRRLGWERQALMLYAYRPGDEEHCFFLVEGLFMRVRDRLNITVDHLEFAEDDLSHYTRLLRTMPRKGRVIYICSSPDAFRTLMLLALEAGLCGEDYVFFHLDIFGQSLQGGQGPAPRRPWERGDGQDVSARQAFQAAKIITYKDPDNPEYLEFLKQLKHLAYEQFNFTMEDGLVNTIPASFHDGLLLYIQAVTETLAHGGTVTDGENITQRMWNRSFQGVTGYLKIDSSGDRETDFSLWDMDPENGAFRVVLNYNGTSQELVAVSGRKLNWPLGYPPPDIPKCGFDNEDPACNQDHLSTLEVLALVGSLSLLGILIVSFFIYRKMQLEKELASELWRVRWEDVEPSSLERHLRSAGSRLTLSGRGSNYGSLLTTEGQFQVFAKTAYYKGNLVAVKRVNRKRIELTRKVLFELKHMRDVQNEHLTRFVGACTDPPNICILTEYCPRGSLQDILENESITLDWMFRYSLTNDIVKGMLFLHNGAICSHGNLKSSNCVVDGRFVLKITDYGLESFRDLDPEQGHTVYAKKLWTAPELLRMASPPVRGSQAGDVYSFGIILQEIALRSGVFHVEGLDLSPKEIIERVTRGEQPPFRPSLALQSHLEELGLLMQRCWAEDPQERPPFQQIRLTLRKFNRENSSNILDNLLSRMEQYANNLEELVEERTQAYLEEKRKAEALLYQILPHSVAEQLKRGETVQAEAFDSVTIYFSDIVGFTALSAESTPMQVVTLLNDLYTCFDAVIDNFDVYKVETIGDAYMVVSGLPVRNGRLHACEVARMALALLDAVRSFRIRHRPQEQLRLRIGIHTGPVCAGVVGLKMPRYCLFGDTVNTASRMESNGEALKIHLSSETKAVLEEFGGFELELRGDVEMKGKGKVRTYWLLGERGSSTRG
Experiment: cell-based or functional assay

Going from B1 to B2, the “% Activation (vs ANP max), Expt 1” value falls from 130% to 74.6%.

For B3, the “% Activation (vs ANP max), Expt 1” value was 73.1%.

First: B1
Second: B2
The “% Activation (vs. ANP max), Expt II” value of the first is higher: 129% for the first, 104% for the second.

For B3, the “% Activation (vs. ANP max), Expt II” value was 56.8%.

B1 and B2 are within 1.5-fold of each other in “EC50 (nM), calcium flux, Expt 1” value: 83.7 nM for the first, 102 nM for the second.

B3 was tested, and the “EC50 (nM), calcium flux, Expt 1” value was 384 nM.

B1 and B2 are within 1.5-fold of each other in “EC50 (nM), calcium flux, Expt II” value: 41.6 nM for the first, 43.4 nM for the second.

In the case of B3, the “EC50 (nM), calcium flux, Expt II” value is reported as greater than 200 nM.

Target: T1, human NPR1 on HEK293/hNPR1.myc.DDK …
Experiment: ECL cell binding (MSD), 0 hANP
Procedure: (§1) All cells were washed once with 1×PBS with Ca²⁺/Mg²⁺ and counted with a Cellometer™ Auto T4 cell counter (Nexcelom Bioscience). Approximately 2.0×10⁴ HEK293/hNPR1.myc.DDK or HEK293 cells were seeded separately onto 96-well carbon electrode plates (MULTI-ARRAY high bind plate, Meso Scale Discovery (MSD, Rockville, MD)) and incubated for 1 hour (h) at 37° C. Nonspecific binding sites were blocked by 2% BSA (w/v) in 1×PBS with Ca²⁺/Mg²⁺for 1 h at room temperature (RT). HEK293/hNPR1.myc. […] The plate-bound antibodies were detected with SULFO-TAG™-conjugated goat polyclonal anti-human IgG antibody specific for heavy and light chains (Jackson Immunoresearch, West Grove, PA) for 1 h, RT.
(§2) After washes, plates were developed with Read Buffer (MSD, Rockville, MD) according to manufacturer's recommended procedure and luminescent signals were recorded with a SECTOR Imager 600 (MSD, Rockville, MD). Luminescence intensity, measured in relative light units (RLU), was recorded to indicate the binding intensity of each antibody at the range of concentrations.
(§3) In addition, direct binding signals (RLU) were analyzed as a function of the antibody concentration and data were fitted with a sigmoidal (four-parameter logistic) dose-response model using R statistical package (open source).

Compared with B1, B2 is 3.3-fold higher in EC50: 0.49 nM for the first, 1.6 nM for the second. The first is the more potent here.

Work on B3 yielded an EC50 of 2.3 nM.

Compared with B1, B2 is lower in “Ratio at 3.7 nM Ab concentration of Cell Binding Signal (RLU) to HEK293/hNPR1.myc.DKK relative to parental HEK293” value: 207 ratio for the first, 58 ratio for the second.

For B3, the “Ratio at 3.7 nM Ab concentration of Cell Binding Signal (RLU) to HEK293/hNPR1.myc.DKK relative to parental HEK293” value was 151 ratio.

Target: T2, human NPR1 on HEK293/hNPR1.myc.DDK cells with 10 nM hANP (NPR1-ANP complex) (human, UniProt P01160 124-151)
T2 construct: also called NPR1-ANP Complex on the Cell Surface
T2 sequence: T1 sequence
T2 sequence (peptide): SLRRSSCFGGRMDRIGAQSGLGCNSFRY
Experiment: ECL cell binding (MSD), +10 nM hANP
Procedure: as §1, §2, §3

B1 and B2 are within 1.5-fold of each other in EC50: 0.82 nM for the first, 1 nM for the second.

With B3 the EC50 was 0.89 nM.

Going from B1 to B2, the “Ratio at 3.7 nM Ab concentration of Cell Binding Signal (RLU) to HEK293/hNPR1.myc.DKK relative to parental HEK293” value falls from 236 ratio to 78 ratio.

First: B3
Second: B4
The “Ratio at 3.7 nM Ab concentration of Cell Binding Signal (RLU) to HEK293/hNPR1.myc.DKK relative to parental HEK293” value of the first is higher: 220 ratio for the first, 14 ratio for the second.

Target: T3, mfNPR1-mFc:hBNP complex (monkey; human, UniProt P16860 103-134)
T3 construct: Receptor-Fc pre-complexed with 10-fold hBNP
Experiment: SPR Biacore, mAb captured by anti-human Fc, 37C
Procedure: (§4) Equilibrium dissociation constant (KD) for different NPR1 reagents binding to purified anti-NPR1 monoclonal antibodies (mAbs) were determined using a real-time surface plasmon resonance based Biacore 4000 biosensor. All binding studies were performed in 10 mM HEPES, 150 mM NaCl, 3 mM EDTA, and 0.05% v/v Surfactant Tween-20, pH 7.4 (HBS-ET) running buffer at 25° C. and 37° C. The Biacore CM5 sensor chip surface was first derivatized by amine coupling with either mouse anti-human Fc specific mAb (GE Healthcare, #BR100839) or goat anti-human Fcy specific polyclonal antibody (Jackson ImmunoResearch Laboratories, #BR-1008-39) to capture anti-NPR1 mAbs.

Going from B1 to B2, the “100 nM Ag Bound (RU)” value falls from 167 RU to 146 RU.

First: B3
Second: B4
The “100 nM Ag Bound (RU)” value of the first is higher: 286 RU for the first, 139 RU for the second.

B1 and B2 are within 1.5-fold of each other in Kd: 1.3 nM for the first, 1.6 nM for the second.

Going from B3 to B4, the Kd rises from 0.368 nM to 5.65 nM (15-fold). The first binds more tightly here.

B1 and B2 are within 1.5-fold of each other in koff: 8.8e-05 s⁻¹ for the first, 0.00011 s⁻¹ for the second.

Going from B3 to B4, the koff rises from 9.48e-05 s⁻¹ to 0.000481 s⁻¹ (5.1-fold).

B1 and B2 are within 1.5-fold of each other in kon: 67500 M⁻¹ s⁻¹ for the first, 68900 M⁻¹ s⁻¹ for the second.

Compared with B3, B4 is 3-fold lower in kon: 258000 M⁻¹ s⁻¹ for the first, 85200 M⁻¹ s⁻¹ for the second.

B1 and B2 are within 1.5-fold of each other in t½: 2.19 h for the first, 1.75 h for the second.

Going from B3 to B4, the t½ falls from 2.03 h to 0.4 h (5.1-fold).

Target: T4, mNPR1-mFc (mouse)
T4 construct: also called mouse NPR1 extracellular domain expressed with a C-terminal mouse IgG2a
T4 chain: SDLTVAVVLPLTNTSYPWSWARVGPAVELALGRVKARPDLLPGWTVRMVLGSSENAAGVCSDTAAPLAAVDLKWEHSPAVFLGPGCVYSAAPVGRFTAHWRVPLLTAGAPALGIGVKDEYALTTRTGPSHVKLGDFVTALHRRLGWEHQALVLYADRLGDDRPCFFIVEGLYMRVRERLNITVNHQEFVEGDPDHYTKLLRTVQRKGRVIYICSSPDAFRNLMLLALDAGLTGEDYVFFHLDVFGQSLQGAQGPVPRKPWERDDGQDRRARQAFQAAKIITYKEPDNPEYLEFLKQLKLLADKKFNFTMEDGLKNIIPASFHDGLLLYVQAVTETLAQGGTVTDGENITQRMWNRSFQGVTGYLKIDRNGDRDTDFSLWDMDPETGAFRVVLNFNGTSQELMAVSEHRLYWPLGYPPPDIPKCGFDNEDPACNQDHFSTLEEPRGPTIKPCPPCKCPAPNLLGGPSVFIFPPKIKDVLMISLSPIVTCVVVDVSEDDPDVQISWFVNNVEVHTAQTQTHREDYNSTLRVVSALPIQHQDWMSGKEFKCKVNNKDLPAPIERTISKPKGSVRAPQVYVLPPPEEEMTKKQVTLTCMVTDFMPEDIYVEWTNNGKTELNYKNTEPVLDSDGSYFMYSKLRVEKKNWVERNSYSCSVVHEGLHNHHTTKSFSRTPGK
Experiment: SPR Biacore, mAb captured by anti-human Fc, 37C
Procedure: as §4

B1 and B2 are the same in “100 nM Ag Bound (RU)” value: 1 RU for the first, 1 RU for the second.

First: B3
Second: B4
The “100 nM Ag Bound (RU)” value of the first is lower: 0 RU for the first, 1 RU for the second.

B2: no binding (tested: 100 nM).
B4: no binding (tested: 100 nM).

Target: T4, mNPR1-mFc
Experiment: SPR Biacore, mAb captured by anti-human Fc, 25C
Procedure: as §4

Going from B1 to B2, the “100 nM Ag Bound (RU)” value rises from 0 RU to 1 RU.

Going from B3 to B4, the “100 nM Ag Bound (RU)” value rises from -1 RU to 1 RU.

B1: no binding (tested: 100 nM).
